According to paper PMC2132842 (The Journal of Cell Biology, 1998):

T1: GAL4/CAS (human, UniProt P55060 1-971)
T1 sequence (looked up): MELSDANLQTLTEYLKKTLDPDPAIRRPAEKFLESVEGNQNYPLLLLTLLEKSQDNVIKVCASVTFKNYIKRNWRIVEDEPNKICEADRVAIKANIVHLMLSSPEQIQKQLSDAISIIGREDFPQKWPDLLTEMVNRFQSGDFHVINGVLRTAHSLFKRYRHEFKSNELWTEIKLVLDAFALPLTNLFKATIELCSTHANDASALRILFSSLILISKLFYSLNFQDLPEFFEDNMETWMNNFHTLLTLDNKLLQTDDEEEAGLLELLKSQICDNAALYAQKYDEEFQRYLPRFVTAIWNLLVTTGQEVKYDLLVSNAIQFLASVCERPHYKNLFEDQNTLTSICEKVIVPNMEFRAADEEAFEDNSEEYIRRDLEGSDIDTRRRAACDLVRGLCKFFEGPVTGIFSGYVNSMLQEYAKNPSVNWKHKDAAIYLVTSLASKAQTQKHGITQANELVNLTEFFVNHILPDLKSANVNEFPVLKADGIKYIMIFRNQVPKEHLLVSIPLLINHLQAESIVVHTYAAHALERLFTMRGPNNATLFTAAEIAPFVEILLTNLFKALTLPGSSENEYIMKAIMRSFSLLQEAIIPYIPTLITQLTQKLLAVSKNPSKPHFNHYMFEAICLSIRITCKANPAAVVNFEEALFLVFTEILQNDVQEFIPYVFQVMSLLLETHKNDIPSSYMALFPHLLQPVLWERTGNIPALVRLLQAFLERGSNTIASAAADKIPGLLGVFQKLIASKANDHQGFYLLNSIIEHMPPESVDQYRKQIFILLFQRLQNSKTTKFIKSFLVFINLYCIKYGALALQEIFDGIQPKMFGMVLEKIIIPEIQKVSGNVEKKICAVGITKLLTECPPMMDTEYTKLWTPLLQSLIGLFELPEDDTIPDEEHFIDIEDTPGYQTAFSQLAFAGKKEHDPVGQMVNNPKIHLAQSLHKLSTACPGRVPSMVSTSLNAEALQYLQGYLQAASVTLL


Experiments:
GAL4/Imp βΔ1/261 = GAL4/Imp βΔ1/261 (human, UniProt Q14974 262-876); assay: two-hybrid
Chain of GAL4/Imp βΔ1/261 (Q14974 262-876, stated change not applied): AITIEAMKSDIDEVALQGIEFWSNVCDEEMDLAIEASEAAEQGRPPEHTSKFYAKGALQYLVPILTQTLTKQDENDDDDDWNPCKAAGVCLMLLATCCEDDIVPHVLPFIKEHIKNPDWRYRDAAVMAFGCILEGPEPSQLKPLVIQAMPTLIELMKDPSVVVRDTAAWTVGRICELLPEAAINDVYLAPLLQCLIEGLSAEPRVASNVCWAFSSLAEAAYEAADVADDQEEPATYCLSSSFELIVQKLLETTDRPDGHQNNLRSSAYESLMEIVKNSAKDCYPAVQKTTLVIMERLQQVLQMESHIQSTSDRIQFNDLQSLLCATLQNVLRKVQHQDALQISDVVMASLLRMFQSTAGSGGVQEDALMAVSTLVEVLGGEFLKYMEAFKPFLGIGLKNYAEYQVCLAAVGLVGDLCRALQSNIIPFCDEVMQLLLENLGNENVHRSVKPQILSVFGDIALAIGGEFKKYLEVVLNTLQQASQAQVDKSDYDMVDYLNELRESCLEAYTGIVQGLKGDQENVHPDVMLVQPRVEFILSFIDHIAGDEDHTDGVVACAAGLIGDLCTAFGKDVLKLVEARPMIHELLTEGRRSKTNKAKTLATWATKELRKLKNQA

GAL4/CAS = molecular target: T1, GAL4/CAS; assay: two-hybrid

| β-gal activity (GAL4/Imp βΔ1/261) [mOD/ml] | β-gal activity (GAL4/CAS) [mOD/ml] | Binder |
| --- | --- | --- |
| 1850 | 174 | VP16/Imp α4 (natural protein, human, UniProt O00505 1-521, looked up) MAENPSLENHRIKSFKNKGRDVETMRRHRNEVTVELRKNKRDEHLLKKRNVPQEESLEDSDVDADFKAQNVTLEAILQNATSDNPVVQLSAVQAARKLLSSDRNPPIDDLIKSGILPILVKCLERDDNPSLQFEAAWALTNIASGTSAQTQAVVQSNAVPLFLRLLRSPHQNVCEQAVWALGNIIGDGPQCRDYVISLGVVKPLLSFISPSIPITFLRNVTWVIVNLCRNKDPPPPMETVQEILPALCVLIYHTDINILVDTVWALSYLTDGGNEQIQMVIDSGVVPFLVPLLSHQEVKVQTAALRAVGNIVTGTDEQTQVVLNCDVLSHFPNLLSHPKEKINKEAVWFLSNITAGNQQQVQAVIDAGLIPMIIHQLAKGDFGTQKEAAWAISNLTISGRKDQVEYLVQQNVIPPFCNLLSVKDSQVVQVVLDGLKNILIMAGDEASTIAEIIEECGGLEKIEVLQQHENEDIYKLAFEIIDQYFSGDDIDEDPCLIPEATQGGTYNFDPTANLQTKEFNF |
| 2350 | 101 | VP16/Imp α1 (natural protein) not shown |
